# Article PMC11211486, “Structural basis for recruitment of peptidoglycan endopeptidase MepS by lipoprotein NlpI” (Nature Communications, 2024)
# Substitutions are numbered along the chain they refer to. Several values for one entry are separate records, joined by “and”; a condition that tells them apart may be missing. Equal entries are not always repeated. Where no end group is shown, it is not given here.
# T1: mMepS-L24R (E. coli, UniProt P0AFV4 27-188, C1 replaced with a Met residue | L24R)
# T1 construct: Site-directed mutant of mMepS; also called L24R variant; source: E. coli BL21 (DE3), purified (Ni-NTA, SEC)
# T1 sequence (looked up): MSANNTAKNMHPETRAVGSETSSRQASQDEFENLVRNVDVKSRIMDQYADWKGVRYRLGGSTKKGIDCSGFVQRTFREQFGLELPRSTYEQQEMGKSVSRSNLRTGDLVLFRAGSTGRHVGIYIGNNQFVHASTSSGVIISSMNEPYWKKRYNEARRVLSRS
# T2: mMepS-Q28A (E. coli, UniProt P0AFV4 27-188, C1 replaced with a Met residue | Q28A)
# T2 construct: Site-directed mutant of mMepS; source: E. coli BL21 (DE3), purified (Ni-NTA, SEC)
# T2 sequence (looked up): T1 sequence (looked up) with R24L, Q28A
# B1: NlpI (residues 20-294), soluble mature lipoprotein NlpI without the lipoprotein signal peptide (natural protein, E. coli, UniProt P0AFB1 20-294, looked up)
# chain: SNTSWRKSEVLAVPLQPTLQQEVILARMEQILASRALTDDERAQLLYERGVLYDSLGLRALARNDFSQALAIRPDMPEVFNYLGIYLTQAGNFDAAYEAFDSVLELDPTYNYAHLNRGIALYYGGRDKLAQDDLLAFYQDDPNDPFRSLWLYLAEQKLDEKQAKEVLKQHFEKSDKEQWGWNIVEFYLGNISEQTLMERLKADATDNTSLAEHLSETNFYLGKYYLSLGDLDSATALFKLAVANNVHNFVEHRYALLELSLLGQDQDDLAESDQQ
# notes: the lipidation residue C19 is not in the construct; pET28a, N-terminal His-tag followed by a TEV site; also called NlpI dimer; adaptor NlpI; source: E. coli BL21 (DE3), purified (Ni-NTA, SEC, MonoQ)
# B2: soluble mature form of MepS (mMepS, residues 1-162) (enzyme, E. coli, UniProt P0AFV4 27-188, looked up)
# chain: T1 sequence (looked up) with R24L
# notes: numbers count on: the mature protein; Cloned into either pET21a (C-terminal His-tag) or pET28a (N-terminal His-tag and TEV site); also called mMepS-1; mMepS-2; source: E. coli BL21 (DE3), purified (Ni-NTA, SEC)
# B3: mMepS-D39A (enzyme, E. coli, UniProt P0AFV4 27-188, looked up)
# chain: T1 sequence (looked up) with R24L, D39A
# notes: numbers count on: the mature protein; Site-directed mutant of mMepS; source: E. coli BL21 (DE3), purified (Ni-NTA, SEC)
# B4: soluble mature form of MepS (mMepS, residues 1-162) (enzyme, E. coli, UniProt P0AFV4 27-188, looked up)
# chain: T1 sequence (looked up) with R24L
# modifications: 15N-labelled in the NMR titrations
# notes: Cloned into either pET21a (C-terminal His-tag) or pET28a (N-terminal His-tag and TEV site); also called wild-type mMepS; mature full-length MepS; source: E. coli BL21 (DE3), purified (Ni-NTA, SEC)
# B5: mMepS-L24R (enzyme, E. coli, UniProt P0AFV4 27-188, looked up)
# chain: T1 sequence (looked up)
# notes: as for B3
# B6: mMepS-Q28A (enzyme, E. coli, UniProt P0AFV4 27-188, looked up)
# chain: T1 sequence (looked up) with R24L, Q28A
# notes: as for B3
# B7: mMepS-D39A (enzyme, E. coli, UniProt P0AFV4 27-188, looked up)
# chain: T1 sequence (looked up) with R24L, D39A
# notes: Site-directed mutant of mMepS; source: E. coli BL21 (DE3), purified (Ni-NTA, SEC)
# B8: MepS-N53 (residues 1-53) (domain or fragment, E. coli, UniProt P0AFV4 27-79, looked up)
# chain: MSANNTAKNMHPETRAVGSETSSLQASQDEFENLVRNVDVKSRIMDQYADWKG
# notes: MepS, E. coli, mature residues 1-53, C1 replaced by Met; numbers count on: the mature protein; His-tag and TEV site; nothing is said for the ITC samples; source: E. coli BL21 (DE3), purified (Ni-NTA, SEC)
# B9: MepS-N53 (residues 1-53) (domain or fragment, E. coli, UniProt P0AFV4 27-79, looked up)
# chain: B8 chain
# modifications: also: 15N-labelled
# notes: MepS, E. coli, N-terminal 53 residues of the mature protein, C1 replaced with Met. numbers count on: the mature protein; this is told for the NMR samples, not for ITC; source: E. coli BL21 (DE3), purified (Ni-NTA, SEC); not shown: His6 with TEV site, N-terminal, kept
# B10: MepS-N39 (residues 1-39) (domain or fragment, E. coli, UniProt P0AFV4 27-65, looked up)
# chain: MSANNTAKNMHPETRAVGSETSSLQASQDEFENLVRNVD
# notes: MepS, E. coli, mature residues 1-39, C1 replaced by Met; numbers count on: the mature protein; His-tag and TEV site; nothing is said for the ITC samples; source: E. coli BL21 (DE3), purified (Ni-NTA, SEC)
# B11: MepS-N39 (residues 1-39) (domain or fragment, E. coli, UniProt P0AFV4 27-65, looked up)
# chain: B10 chain
# modifications: also: 15N-labelled
# notes: MepS, E. coli, N-terminal 39 residues of the mature protein, C1 replaced with Met. numbers count on: the mature protein; this is told for the NMR samples, not for ITC; source: E. coli BL21 (DE3), purified (Ni-NTA, SEC); not shown: His6 with TEV site, N-terminal, kept
# How the values were obtained:
# [1] = molecular target: the molecule itself; assay: crystal structure; NlpI-mMepS complex, 2.8 Å, space group C2, PDB 8XUP
# [2] = molecular target: B4; assay: NMR titration; 1H-15N TROSY-HSQC of 15N-labelled MepS protein (50 µM in Fig. 1) with unlabelled NlpI dimer (25 µM), NlpI-ΔN or Prc^SK added; 298 K; intensity ratios I/I0; conditions: both partners purified
# [3] = molecular target: T1, mMepS-L24R; assay: ITC; NlpI (300 or 600 µM) injected into 30 µM MepS protein in the cell; 20 °C; 20 mM HEPES pH 7.5, 300 mM NaCl, 2 mM β-mercaptoethanol; one set of sites model; conditions: both partners purified
# [4] = molecular target: T2, mMepS-Q28A; assay: as above; conditions: both partners purified
# [5] = molecular target: B4; assay: as above; conditions: both partners purified
# [6] = molecular target: T3, NlpI (residues 20-294, without the lipoprotein signal peptide) (E. coli, UniProt P0AFB1 20-294); assay: ITC; NlpI (or NlpI-ΔN) in the syringe, 300 or 600 µM, injected into 30 µM MepS protein in the cell; 20 °C; 20 mM HEPES pH 7.5, 300 mM NaCl, 2 mM β-mercaptoethanol; one set of sites model; three experiments and their average; conditions: both partners purified
# T3 construct: the lipidation site C19 is not in the construct; pET28a with an N-terminal His-tag and a TEV cleavage site; also called NlpI-WT; NlpI dimer; source: E. coli BL21 (DE3), purified (Ni-NTA, SEC, MonoQ)
# [7] = molecular target: B1; assay: ITC; NlpI (300 or 600 µM) injected into 30 µM MepS protein in the cell; 20 °C; 20 mM HEPES pH 7.5, 300 mM NaCl, 2 mM β-mercaptoethanol; one set of sites model; conditions: both partners purified
Kd [6],Kd [7] [nM],Binder,other results
,,B1,stoichiometry N [1]: 2; NMR signal intensity ratio with NlpI [2]: < 10%; fold increase in KD against mMepS [3]: ~28 fold; fold decrease in binding affinity against mMepS [4]: 7.7 fold; stoichiometry N [5]: 1
250 nM and 220 nM,,B2,
280 nM and 390 nM and 500 nM,,B3,
,240,B4,
6210 nM and 6800 nM and 6940 nM and 6650 nM,,B5,
1910 nM and 1770 nM and 1880 nM and 1850 nM,,B6,
,390,B7,
1190 nM and 1560 nM and 1590 nM,,B8,
,1450,B9,
2650 nM and 2550 nM and 2840 nM,,B10,
,2680,B11,
